This is an account of results in publication PMC5127646, “Structural basis for the recognition of spliceosomal SmN/B/B’ proteins by the RBM5 OCRE domain in splicing regulation” (eLife, 2016).

First the molecules themselves.
B1: RBM5 OCRE domain (residues 451-511), wild type (domain or fragment, human)
chain: GAMGTKYAVPDTSTYQYDESSGYYYDPTTGLYYDPNSQYYYNSLTQQYLYWDGEKETYVPAAES
notes: tripeptide left by the TEV cleavage; 15N- or 13C,15N-labelled in the NMR experiments; also called RBM5_OCRE WT; source: E. coli BL21, purified (Ni-NTA, TEV cleavage, gel filtration); not shown: His6, N-terminal, cleaved
B2: SmN 167-240 4P→4A (domain or fragment)
chain: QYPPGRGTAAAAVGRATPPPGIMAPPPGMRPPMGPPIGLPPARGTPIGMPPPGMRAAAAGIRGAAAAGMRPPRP
B3: SmN 167-240 4P/3P→4G/3G (domain or fragment)
chain: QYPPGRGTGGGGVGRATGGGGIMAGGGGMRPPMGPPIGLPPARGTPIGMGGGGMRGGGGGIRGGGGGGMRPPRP
B4: SmN residues 167-196 (domain or fragment)
chain: not shown
notes: source: E. coli BL21, purified (Ni-NTA, TEV cleavage, gel filtration); not shown: His6, N-terminal, cleaved; GST, N-terminal, cleaved
B5: SmN 167-240 4P/3P→4A/3A (domain or fragment)
chain: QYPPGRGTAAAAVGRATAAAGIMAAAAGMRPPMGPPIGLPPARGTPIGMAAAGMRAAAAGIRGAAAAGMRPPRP
B6: SmN peptide, residues 219-229 (GMRPPPPGIRG) (peptide)
peptide: GMRPPPPGIRG
notes: source: synthetic peptide (Peptide Specialty Laboratory, Heidelberg)
B7: RBM5 OCRE domain (451-511) Y495A (domain or fragment, human)
chain: B1 chain with Y48A
notes: tripeptide left by the TEV cleavage; RBM5, human, OCRE domain, residues 451-511; source: E. coli BL21, purified (Ni-NTA, TEV cleavage, gel filtration); not shown: His6, N-terminal, cleaved
B8: RBM5 OCRE domain (451-511) Y454A/D458K (domain or fragment, human)
chain: B1 chain with Y7A, D11K
notes: as for B7
B9: RBM5 OCRE domain (451-511) Y488A (domain or fragment, human)
chain: B1 chain with Y41A
notes: as for B7
B10: RBM5 OCRE domain (451-511) Y495F (domain or fragment, human)
chain: B1 chain with Y48F
notes: as for B7
B11: RBM5 OCRE domain (451-511) Y495T (domain or fragment, human)
chain: B1 chain with Y48T
notes: as for B7
B12: RBM5 OCRE domain (451-511) Y495W (domain or fragment, human)
chain: B1 chain with Y48W
notes: as for B7
B13: RBM5 OCRE domain (451-511) Y479A (domain or fragment, human)
chain: B1 chain with Y32A
notes: as for B7
B14: RBM5 OCRE domain (451-511) E501K (domain or fragment, human)
chain: B1 chain with E54K
notes: as for B7
B15: RBM5 OCRE domain (451-511) Y486A (domain or fragment, human)
chain: B1 chain with Y39A
notes: as for B7

Residue numbers refer to the chain shown, from its start. Names and notes keep the numbering of the source.

The first experiment deals with T1, SmN C-terminal tail, residues 167-240 (complete proline-rich region), wild type (human, UniProt P63162 167-240).
T1 construct: The ITC methods print 168-240 for this construct; also called SmN_167-240 WT; source: E. coli BL21, purified (Ni-NTA, TEV cleavage, gel filtration); not shown: His6, N-terminal, cleaved; GST, N-terminal, cleaved
Put plainly: ITC; Sm tail constructs with wild type OCRE; SmN constructs (1 mM) titrated into OCRE (100 μM); ITC200, 24°C, 20 mM sodium phosphate pH 6.5, 50 mM NaCl; duplicates. Particulars: both partners purified. (In general: Isothermal titration calorimetry measures the heat released or taken up as one component is titrated into another.)
On to B1, for which the Kd amounted to 41 µM.

A further experiment deals with B1. Described as above. Particulars: both partners purified.
B2 gave a dissociation constant Kd of 29 µM.

Consider B3, for which binding was put at a Kd of 192 µM.

As for B4, binding was put at a Kd of 195 µM.

Regarding B5, the Kd amounted to 103 µM.

Another experiment deals with T2, SmB C-terminal region, residues 167-231, wild type (human, UniProt P14678-2 167-231).
T2 construct: source: E. coli BL21, purified (Ni-NTA, TEV cleavage, gel filtration); not shown: His6, N-terminal, cleaved; GST, N-terminal, cleaved
The experiment is described as above. The conditions noted are these: both partners purified.
As to B1, the Kd was determined as 21 µM.

Another experiment concerns the target B1. Put plainly: NMR structure; solution structure; 2 mM ^13C,^15N-labeled OCRE with 14 mM unlabeled SmN 219-229 peptide, 298 K; 109 intermolecular NOE restraints. Particulars: both partners purified.
Consider B6, for which the binding result is recorded as “binds”.

For the next experiment, the target named is T1, SmN C-terminal tail, residues 167-240 …. Put plainly: ITC; purified OCRE mutants (2 mM) titrated to wild type SmN (29.5 μM); ITC200, 24°C, 20 mM sodium phosphate pH 6.5, 50 mM NaCl; duplicates. Particulars: both partners purified.
For the molecule B7, the Kd turned out to be 172 µM.

B8 had an equilibrium dissociation constant (Kd) of 106 µM.

B9 displayed a Kd of 220 µM.

For B10, binding was characterised by a dissociation constant (Kd) of 87 µM.

Consider B11, for which the affinity, expressed as Kd, was 186 µM.

As for B12, binding was characterised by a dissociation constant (Kd) of 35 µM.

For the molecule B13, binding was characterised by a dissociation constant (Kd) of 111 µM.

On to B14, for which the dissociation constant Kd is 48 µM.

In turn, B15 registered a dissociation constant Kd of 145 µM.

Usually Kd stands for a measure of binding affinity in units of concentration. Read a high Kd as a looser complex.
